How the values were obtained:
[1] = substrate: CC(=O)C(=O)O; assay: PDC activity: acetaldehyde by DNPH derivatization and HPLC, Michaelis-Menten fit; assay type: biochemical, Saccharolobus solfataricus; settings: PDC (non-oxidative decarboxylation) reaction, 0.1 mM CoA, 100 mM sodium phosphate pH 7.9, 80 °C
Description: PDC activity: acetaldehyde by DNPH derivatization and HPLC, Michaelis-Menten fit on SsPOR/PDC

purified protein = substrate: CC(=O)C(=O)O; assay: purified protein; assay type: biochemical, Saccharolobus solfataricus; settings: POR (oxidative decarboxylation) reaction, 0.1 mM CoA, 1 mM benzyl viologen, 50 µM sodium dithionite, anaerobic, pH 8.0, 80 °C

B1: SsPOR/PDC (Saccharolobus solfataricus) (protein)
chain 1: MRISWMIGGAQGSGVDTSANIFGNAVAASGYYIYGNREYYSNIKGRHSYFNLTISDKPPRSIAQQIEILTSFDAETIFQHFNEVKDVLIYSTEVENTKAEQVQSMEPEITEHVVKFLKEKGYGTTVKDVINYLKKEKGVKVIPIDYMEILKKVADQAKVQLSVADRARNTIAIAASYKLLGLKEQYLINSITRTFRQEVFAKINTIAAQLAMQQIQPMYNLPELPNNEEKINLDGNTAAAIGKIYGGLRFQSYYPITPASDESVFIEAHQTVFTVDPKTGEKRKSTIVVVQAEDELAAINMASGAALTGVRAATATSGPGFSLMVEGMGWAGMNEVPVVITYYIRGGPSTGQPTRTSQADLMFALNAGHGEFPRIVIASGDHVEAFHDGTWALNLAQKYQTPVIHLVDKALANSYSIIPKKTLGMENIRIEKGKIVINTNTPELKRFEITEDGISPFAPLGTARVHYTGDEHDEYGFIAEASENREKMYEKRIKKLMTADKEIPEESRVNVYGNTDSKVAIITWGSPKGAILDAMEELENEGIKPMLIQIRMFSPFPKNLMRKLLNGKEFIIDVESNYFGQAGEVLKLNTGIEPTHYILKWNGRPMMRDEVKEGIKAVVQKGERRVVLHGGA
chain 2: MAGLKVEWNDWCPGCGNFGILSAEQQAIQELGLDPKKVVLVSGIGCSGKIPHFIRLPASGVHTLHGRALTFAIGIKLANPSLEVIVNGGDGDQLGIGVGHFVSAGRRNVDLTVIVHNNGVYGLTKGQASPTLKLGVKTKSLPKPNINSDINPIALAISSGYTFVARGYAYDVKHLKEIIKKAIKHKGLAMIDVLQPCPTYNDIHTKEYYDKRVYKLDEDPSWDPIVKKPEEMDDKMSKAILKSMEWGDRTPIGIFYQNELVSTYEQRIAERSPSYLDNPPAHDVIEFEGKPTTDVEDILKERRVT
notes: native, purified from cells by DEAE-Sepharose, hydroxyapatite and phenyl-Sepharose; heterodimer (alpha-beta), subunits 37 and about 65 kDa
B1 was tested, and the Km [1] was 1100 ± 200 µM, the Vmax [1] was 0.12 µmol/min/mg and the Km (purified protein) was 500 ± 100 µM. The Vmax (purified protein) was 6.3 µmol/min/mg.
